Data from the supplement of paper PMC10724198.
± gives the standard deviation of the averaged measurements.

tested on: Saccharomyces cerevisiae; assay: protein stability index of tFT-peptide fusion (C-terminal peptide) (PSI (0-1 scale)); higher = more stable (slower turnover); settings: genetic background: wild type; temperature: 30 C
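Further: PSI is a weighted mean of sequencing reads over stability bins, variants kept only with over 10 reads, mCherry proximal and sfGFP distal, peptide attached via GGGS linker.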

Row | Sequence | protein stability index
1 | PLRVDLTHQQWS | 0.574 ± 0.11
2 | PLRYPQLTLPPP | 0.6381 ± 0.0037
3 | PLSDRGGRFPML | 0.7 ± 0.053
4 | PLSLIAFAISPC | 0.637 ± 0.015
5 | PLSPFLPPPVPL | 0.703 ± 0.13
6 | PLSPFLRFLSSP | 0.605 ± 0.072
7 | PLSPPLPPAIPS | 0.698 ± 0.063
8 | PLSPPPRPPPSP | 0.654 ± 0.066
9 | PLSPPPRRPPSP | 0.655 ± 0.022
10 | PLSSILSPSSPA | 0.729 ± 0.052
11 | PLTFRYQSHSAH | 0.702 ± 0.11
12 | PLTNPPRSRKSS | 0.783 ± 0.12
13 | PLTTTPPTRHTP | 0.6978 ± 0.004
14 | PLWHCFRFLSGS | 0.607 ± 0.014
15 | PMPPPRRPTALC | 0.716 ± 0.038
16 | PNPPPPPPPSSP | 0.742 ± 0.058
17 | PNRPPLQFFPPP | 0.697 ± 0.05
18 | PNSTIVATKGVT | 0.648 ± 0.076
19 | PPAASSFRLSSC | 0.751 ± 0.1
20 | PPALPPTGHPPF | 0.709 ± 0.013
21 | PPAPFAICRTRS | 0.654 ± 0.018
22 | PPAPPAPPPSVG | 0.708 ± 0.03
23 | PPAPPPPPPSPP | 0.659 ± 0.029
24 | PPAPPPPSTPHP | 0.672 ± 0.13
25 | PPAPPPVSPPRP | 0.7075 ± 0.0027
26 | PPAPPSQPINAT | 0.709 ± 0.053

Row | Sequence | protein stability index
27 | PPAPSPPLPSLA | 0.694 ± 0.037
28 | PPAPTHSAPSQI | 0.655 ± 0.07
29 | PPARTPPGLPRP | 0.723 ± 0.29
30 | PPASPPAPRPPV | 0.759 ± 0.018
31 | PPATTPASTNLQ | 0.7 ± 0.017
32 | PPAVDSSPRSRD | 0.7148 ± 0.0019
33 | PPCAPFSPPALP | 0.659 ± 0.05
34 | PPCCFPRSPSPS | 0.714 ± 0.049
35 | PPCPAPLSPPLG | 0.676 ± 0.049
36 | PPCPSPPLFLPS | 0.687 ± 0.063
37 | PPCRREEQTDNH | 0.682 ± 0.059
38 | PPCTVKAQRAYD | 0.694 ± 0.035
39 | PPDALTHPTPPQ | 0.703 ± 0.013
40 | PPFFLLLPPTIF | 0.67 ± 0.063
41 | PPFPKFPRPRLH | 0.738 ± 0.04
42 | PPFSHLPYLLPP | 0.685 ± 0.015
43 | PPFTARPATLAR | 0.565 ± 0.017
44 | PPFVPGEVRRTV | 0.6867 ± 0.0036
45 | PPGLRSYACCRN | 0.7615 ± 0.0046
46 | PPGNPPPRRLTS | 0.695 ± 0.053
47 | PPGPLPPLSSTP | 0.661 ± 0.034
48 | PPGPVVPPPPPD | 0.664 ± 0.027
49 | PPHFPPRPRPGP | 0.685 ± 0.015
50 | PPHHSLSPPLPP | 0.6607 ± 0.0014
51 | PPHPPAPHPSPT | 0.733 ± 0.069
52 | PPHPPNPLPTPQ | 0.829 ± 0.17

Row | Sequence | protein stability index
53 | PPHSALPLPPSP | 0.726 ± 0.039
54 | PPHSHCPSAPHN | 0.643 ± 0.082
55 | PPLALPPGPARP | 0.738 ± 0.016
56 | PPLAMVLYSLFE | 0.556 ± 0.013
57 | PPLAPDPPPRVY | 0.654 ± 0.013
58 | PPLAPLPSAPLR | 0.674 ± 0.058
59 | PPLDPPPAPPPP | 0.693 ± 0.08
60 | PPLFPYRPPQPT | 0.697 ± 0.099
61 | PPLHPPPPAFVF | 0.64175 ± 0.00037
62 | PPLHSSPPAVPP | 0.699 ± 0.038
63 | PPLLPLSPRPPA | 0.704 ± 0.089
64 | PPLLPPPHPFPP | 0.6656 ± 0.0053
65 | PPLLPPPPAFVF | 0.668 ± 0.0069
66 | PPLLPRLLTPTP | 0.671 ± 0.087
67 | PPLLPSPPRPPL | 0.774 ± 0.078
68 | PPLNPPRSPFSP | 0.6814 ± 0.0018
69 | PPLPAPPQSPHT | 0.705 ± 0.028
70 | PPLPLTLRSSPS | 0.677 ± 0.031
71 | PPLPPLPAPSPV | 0.652 ± 0.021
72 | PPLPPPSVRPSS | 0.63 ± 0.028
73 | PPLPPPTPLQCL | 0.696 ± 0.027
74 | PPLPPSLPPPPP | 0.63 ± 0.12
75 | PPLPPSPPCPPA | 0.642 ± 0.079
76 | PPLPPSSPRSLL | 0.701 ± 0.018
77 | PPLPRLPPPPLP | 0.627 ± 0.029
78 | PPLPRSPSPPPP | 0.644 ± 0.028

Row | Sequence | protein stability index
79 | PPLRLSHFPRAD | 0.659 ± 0.06
80 | PPLRPAADFRTT | 0.733 ± 0.093
81 | PPLRPGLLYSPS | 0.687 ± 0.019
82 | PPLSLSPYPLPH | 0.69464 ± 0.0002
83 | PPLVHPCPSSHI | 0.801 ± 0.088
84 | PPNTSVPSSLGR | 0.667 ± 0.038
85 | PPPAPARPPTPP | 0.686 ± 0.11
86 | PPPAPPCRLMSP | 0.719 ± 0.059
87 | PPPAPPLLPPLP | 0.718 ± 0.033
88 | PPPAPPPSPPSN | 0.675 ± 0.044
89 | PPPAPPTPPSPP | 0.628 ± 0.028
90 | PPPARSRCTHPT | 0.706 ± 0.026
91 | PPPASLTSPRQP | 0.731 ± 0.013
92 | PPPASPLVPPSP | 0.712 ± 0.021
93 | PPPAYTPPLPPP | 0.669 ± 0.0073
94 | PPPCPPPRRHPP | 0.605 ± 0.022
95 | PPPDSPPLPAPP | 0.659 ± 0.033
96 | PPPFLQPLPASP | 0.729 ± 0.045
97 | PPPFSPPAPSPP | 0.669 ± 0.053
98 | PPPHAKPPPGPL | 0.672 ± 0.019
99 | PPPHIPPPPLSA | 0.682 ± 0.025
100 | PPPHPLPPLPAT | 0.744 ± 0.043
101 | PPPIPGDPTPCP | 0.667 ± 0.021
102 | PPPLACLPLSLR | 0.71 ± 0.043
103 | PPPLACPSPPVT | 0.734 ± 0.12
104 | PPPLFPALHHPP | 0.639 ± 0.051

Row | Sequence | protein stability index
105 | PPPLLPPHLPLL | 0.717 ± 0.032
106 | PPPLLPPRPLAP | 0.731 ± 0.019
107 | PPPLLPPTLPPR | 0.713 ± 0.047
108 | PPPLPLPPPLPP | 0.533 ± 0.046
109 | PPPLPLPSPPPP | 0.671 ± 0.089
110 | PPPLPPIPSRPH | 0.701 ± 0.019
111 | PPPLPPLSPPPS | 0.749 ± 0.023
112 | PPPLPPPPPAPS | 0.692 ± 0.0096
113 | PPPLPPPPPPPP | 0.673 ± 0.026
114 | PPPLPPPTPLPT | 0.681 ± 0.12
115 | PPPLPPRLPHLA | 0.664 ± 0.036
116 | PPPLRAFPPPLL | 0.648 ± 0.06
117 | PPPLSCPRPPIT | 0.664 ± 0.031
118 | PPPLSLLPPCSP | 0.678 ± 0.12
119 | PPPNPFRGPFPL | 0.663 ± 0.035
120 | PPPPAPPPLLLP | 0.717 ± 0.044
121 | PPPPAPSPPIPP | 0.692 ± 0.037
122 | PPPPDPPAPSSP | 0.749 ± 0.078
123 | PPPPFPPPSPPL | 0.7147 ± 0.0063
124 | PPPPFRPSPPLP | 0.664 ± 0.0084
125 | PPPPHAHFPPPP | 0.652 ± 0.013
126 | PPPPHPPPPLFP | 0.714 ± 0.083
127 | PPPPHPPRPPRP | 0.676 ± 0.0074
128 | PPPPLAPAPPAF | 0.744 ± 0.016
129 | PPPPLLPPPIPL | 0.6847 ± 0.0032
130 | PPPPLLRSPLHL | 0.731 ± 0.011

Row | Sequence | protein stability index
131 | PPPPLPDTLRSP | 0.6238 ± 0.0053
132 | PPPPLPLPPFSP | 0.8017 ± 0.0011
133 | PPPPLPPCTPAT | 0.6797 ± 0.0047
134 | PPPPLPPLSPSP | 0.7604 ± 0.0068
135 | PPPPLPPSPCSL | 0.567 ± 0.019
136 | PPPPLRPPAAPP | 0.639 ± 0.005
137 | PPPPPLPRSPSP | 0.807 ± 0.12
138 | PPPPPLYLPRFV | 0.675 ± 0.056
139 | PPPPPPARLPSP | 0.711 ± 0.017
140 | PPPPPPATPPPS | 0.681 ± 0.045
141 | PPPPPPGHLPRL | 0.76 ± 0.05
142 | PPPPPPGSPTRP | 0.788 ± 0.075
143 | PPPPPPLFPPCP | 0.659 ± 0.11
144 | PPPPPPLSPSPP | 0.756 ± 0.011
145 | PPPPPPLVLSPL | 0.678 ± 0.02
146 | PPPPPPPHLPSL | 0.711 ± 0.079
147 | PPPPPPPLPSLR | 0.671 ± 0.0086
148 | PPPPPPPLVPPL | 0.703 ± 0.12
149 | PPPPPPPNSHPH | 0.678 ± 0.021
150 | PPPPPPPPAPLP | 0.708 ± 0.089
151 | PPPPPPPPLPPP | 0.5856 ± 0.0041
152 | PPPPPPPPPPPP | 0.627 ± 0.031
153 | PPPPPPPPPPSL | 0.746 ± 0.061
154 | PPPPPPPPPPSS | 0.709 ± 0.13
155 | PPPPPPPPPRSS | 0.718 ± 0.021
156 | PPPPPPPPSALP | 0.719 ± 0.043

Row | Sequence | protein stability index
157 | PPPPPPPRPDPP | 0.557 ± 0.04
158 | PPPPPPPYPLIP | 0.67 ± 0.013
159 | PPPPPPRFHALH | 0.715 ± 0.021
160 | PPPPPPRRSSPP | 0.681 ± 0.069
161 | PPPPPPSPLGPP | 0.674 ± 0.057
162 | PPPPPPTPSLRL | 0.72 ± 0.021
163 | PPPPPPTRCHTP | 0.728 ± 0.056
164 | PPPPPPVPSRPL | 0.644 ± 0.046
165 | PPPPPPVRSLPL | 0.72 ± 0.088
166 | PPPPPRAAPPPP | 0.668 ± 0.061
167 | PPPPPRHPSSPP | 0.71068 ± 0.00014
168 | PPPPPRPPLPHL | 0.686 ± 0.038
169 | PPPPPSAISPTH | 0.732 ± 0.0036
170 | PPPPPSFSFPPT | 0.706 ± 0.049
171 | PPPPPSHPPPLS | 0.571 ± 0.0097
172 | PPPPPTALLRPP | 0.731 ± 0.18
173 | PPPPRPAPAPLL | 0.6948 ± 0.0067
174 | PPPPRTLASPSY | 0.679 ± 0.026
175 | PPPPSAPPLPLP | 0.61 ± 0.018
176 | PPPPSLPPPLPF | 0.7844 ± 0.0011
177 | PPPPSPALPTFP | 0.715 ± 0.049
178 | PPPPSPFPLPSP | 0.6846 ± 0.0024
179 | PPPPSPSPLPPS | 0.751 ± 0.015
180 | PPPPTPPYTPVP | 0.623 ± 0.032
181 | PPPQGSQPSTLS | 0.739 ± 0.051
182 | PPPQHLPPPSLS | 0.676 ± 0.019

Row | Sequence | protein stability index
183 | PPPRPICCALNS | 0.655 ± 0.014
184 | PPPRPLQPRPRP | 0.6502 ± 0.0019
185 | PPPRPPALPPLP | 0.69 ± 0.016
186 | PPPRPPPASPVP | 0.708 ± 0.076
187 | PPPRPPSPLSLA | 0.643 ± 0.1
188 | PPPRPTVPPGSR | 0.668 ± 0.014
189 | PPPRSPPFPSPL | 0.689 ± 0.042
190 | PPPRTLARSRLP | 0.74 ± 0.016
191 | PPPRTYLPRPRL | 0.764 ± 0.0085
192 | PPPSDPPPSPPP | 0.665 ± 0.016
193 | PPPSFPDWRYRW | 0.755 ± 0.017
194 | PPPSFPPFFPSF | 0.731 ± 0.014
195 | PPPSHPLSPPRP | 0.717 ± 0.24
196 | PPPSPAPLPAGP | 0.682 ± 0.061
197 | PPPSPPPPPSLP | 0.669 ± 0.019
198 | PPPSPRSAPAAS | 0.711 ± 0.1
199 | PPPSPTSPPPPS | 0.69 ± 0.018
200 | PPPSSSLLPLPF | 0.817 ± 0.14
201 | PPPSTPLSPSSP | 0.72 ± 0.11
202 | PPPTHPHLSSAL | 0.73 ± 0.04
